Data reported in patent US10941182 (Amgen, dated 2021).
Non-standard residues stand in square brackets, D forms with d. dBip = N[C@H](Cc1ccc(-c2ccccc2)cc1)C(=O)O; Oic = O=C(O)[C@@H]1C[C@@H]2CCCC[C@@H]2N1; Phe(4-Cl) = N[C@@H](Cc1ccc(Cl)cc1)C(=O)O; Phe(4-I) = N[C@@H](Cc1ccc(I)cc1)C(=O)O; NMehArg = CN[C@@H](CCCCNC(=N)N)C(=O)O; NMeR = CN[C@@H](CCCNC(=N)N)C(=O)O; hArg = N=C(N)NCCCC[C@H](N)C(=O)O; Cha = N[C@@H](CC1CCCCC1)C(=O)O; NMeL = CN[C@@H](CC(C)C)C(=O)O; Nle = CCCC[C@H](N)C(=O)O; Aib = CC(C)(N)C(=O)O

T1: human APJ receptor (human, UniProt P35414 1-380)
T1 sequence (looked up): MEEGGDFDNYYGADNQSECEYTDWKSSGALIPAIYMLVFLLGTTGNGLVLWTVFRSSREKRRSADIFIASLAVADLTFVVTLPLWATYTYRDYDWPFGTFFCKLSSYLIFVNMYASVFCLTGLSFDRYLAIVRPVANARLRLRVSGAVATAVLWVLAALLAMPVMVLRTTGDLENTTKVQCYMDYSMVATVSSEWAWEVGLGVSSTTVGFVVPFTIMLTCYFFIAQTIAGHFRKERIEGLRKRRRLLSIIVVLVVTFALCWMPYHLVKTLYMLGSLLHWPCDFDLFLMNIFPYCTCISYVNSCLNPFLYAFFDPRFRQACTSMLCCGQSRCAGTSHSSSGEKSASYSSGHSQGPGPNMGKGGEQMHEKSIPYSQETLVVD

T2: rat APJ receptor (rat, UniProt Q9JHG3 1-377)
T2 sequence (looked up): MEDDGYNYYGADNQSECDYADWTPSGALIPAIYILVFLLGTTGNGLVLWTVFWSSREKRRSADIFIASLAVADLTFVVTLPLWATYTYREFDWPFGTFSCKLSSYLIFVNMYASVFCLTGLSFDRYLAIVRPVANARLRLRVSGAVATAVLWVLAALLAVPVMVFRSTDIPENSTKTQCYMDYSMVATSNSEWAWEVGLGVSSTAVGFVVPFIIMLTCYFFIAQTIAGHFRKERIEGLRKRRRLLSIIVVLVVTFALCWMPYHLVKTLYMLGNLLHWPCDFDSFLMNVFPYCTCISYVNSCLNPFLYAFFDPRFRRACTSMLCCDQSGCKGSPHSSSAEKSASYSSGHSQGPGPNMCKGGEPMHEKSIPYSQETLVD


Experiments:
human APJ receptor = biological target: T1, human APJ receptor; experiment: cell-based or functional assay
rat APJ receptor = biological target: T2, rat APJ receptor; experiment: cell-based or functional assay

| Binder | EC50 Human APJ Receptor (human APJ receptor) | EC50 Rat APJ Receptor (rat APJ receptor) |
| --- | --- | --- |
| Ac-QR[NMeR]LSHKGP[Nle]P[Phe(4-Cl)]-OH (SMILES CCCC[C@H](NC(=O)[C@@H]1CCCN1C(=O)CNC(=O)[C@H](CCCCN)NC(=O)[C@H](Cc1c[nH]cn1)NC(=O)[C@H](CO)NC(=O)[C@H](CC(C)C)NC(=O)[C@H](CCCNC(=N)N)N(C)C(=O)[C@H](CCCNC(=N)N)NC(=O)[C@H](CCC(N)=O)NC(C)=O)C(=O)N1CCC[C@H]1C(=O)N[C@@H](Cc1ccc(Cl)cc1)C(=O)O) [SEQ ID NO: 72] | 1.36 nM | 40.6 nM |
| RLIEDICLPRWGCLWEDDXXQRPRLSHKGPXPF ({Acetyl-NH}RLIEDICLPRWGCLWEDD[Aeea][Aeea]QRP[NMeArg]LSHKGP[Nle]P[4-Cl-F]{COOH}) [SEQ ID NO: 90] | 0.14 nM | 0.633 nM |
| Ac-QRP[NMeR][Cha]SHKG[Oic][Nle][Aib][Phe(4-Cl)]-OH [SEQ ID NO: 92] | 0.679 nM | 3.23 nM |
| Ac-E[dR]Q[hArg]P[dR][NMeL]SHKG[Oic][Phe(4-I)]P[dBip]-OH [SEQ ID NO: 75] | 1.56 nM | 1.08 nM |
| Ac-RQRP[NMeR][Cha]SHKGP[Nle]P[Phe(4-Cl)]-OH (SMILES CCCC[C@H](NC(=O)[C@@H]1CCCN1C(=O)CNC(=O)[C@H](CCCCN)NC(=O)[C@H](Cc1c[nH]cn1)NC(=O)[C@H](CO)NC(=O)[C@H](CC1CCCCC1)NC(=O)[C@H](CCCNC(=N)N)N(C)C(=O)[C@@H]1CCCN1C(=O)[C@H](CCCNC(=N)N)NC(=O)[C@H](CCC(N)=O)NC(=O)[C@H](CCCNC(=N)N)NC(C)=O)C(=O)N1CCC[C@H]1C(=O)N[C@@H](Cc1ccc(Cl)cc1)C(=O)O) [SEQ ID NO: 66] | 0.0405 nM | 0.156 nM |
| Ac-[hArg][dR]Q[hArg]P[dR]ESHKG[Oic][Phe(4-I)]P[dBip]-OH (SMILES CC(=O)N[C@@H](CCCCNC(=N)N)C(=O)N[C@H](CCCNC(=N)N)C(=O)N[C@@H](CCC(N)=O)C(=O)N[C@@H](CCCCNC(=N)N)C(=O)N1CCC[C@H]1C(=O)N[C@H](CCCNC(=N)N)C(=O)N[C@@H](CCC(=O)O)C(=O)N[C@@H](CO)C(=O)N[C@@H](Cc1c[nH]cn1)C(=O)N[C@@H](CCCCN)C(=O)NCC(=O)N1[C@H](C(=O)N[C@@H](Cc2ccc(I)cc2)C(=O)N2CCC[C@H]2C(=O)N[C@H](Cc2ccc(-c3ccccc3)cc2)C(=O)O)C[C@@H]2CCCC[C@@H]21) [SEQ ID NO: 80] | 127 nM | 68.7 nM |
| Ac-RQRP[NMeR]LSHKGP[Nle]P[Phe(4-Cl)]-OH (SMILES CCCC[C@H](NC(=O)[C@@H]1CCCN1C(=O)CNC(=O)[C@H](CCCCN)NC(=O)[C@H](Cc1c[nH]cn1)NC(=O)[C@H](CO)NC(=O)[C@H](CC(C)C)NC(=O)[C@H](CCCNC(=N)N)N(C)C(=O)[C@@H]1CCCN1C(=O)[C@H](CCCNC(=N)N)NC(=O)[C@H](CCC(N)=O)NC(=O)[C@H](CCCNC(=N)N)NC(C)=O)C(=O)N1CCC[C@H]1C(=O)N[C@@H](Cc1ccc(Cl)cc1)C(=O)O) [SEQ ID NO: 65] | 0.0302 nM | 0.122 nM |
| Ac-RQRP[NMeR][NMeL]SHKGP[Nle]P[Phe(4-Cl)]-OH (SMILES CCCC[C@H](NC(=O)[C@@H]1CCCN1C(=O)CNC(=O)[C@H](CCCCN)NC(=O)[C@H](Cc1c[nH]cn1)NC(=O)[C@H](CO)NC(=O)[C@H](CC(C)C)N(C)C(=O)[C@H](CCCNC(=N)N)N(C)C(=O)[C@@H]1CCCN1C(=O)[C@H](CCCNC(=N)N)NC(=O)[C@H](CCC(N)=O)NC(=O)[C@H](CCCNC(=N)N)NC(C)=O)C(=O)N1CCC[C@H]1C(=O)N[C@@H](Cc1ccc(Cl)cc1)C(=O)O) [SEQ ID NO: 67] | 0.185 nM | 1.4 nM |
| Ac-[hArg][dR]QEP[dR][NMeL]SHKG[Oic][Phe(4-I)]P[dBip]-OH [SEQ ID NO: 77] | 4.92 nM | 2.84 nM |
| Ac-RQRPR[NMeL]SHKGP[Nle]P[Phe(4-Cl)]-OH (SMILES CCCC[C@H](NC(=O)[C@@H]1CCCN1C(=O)CNC(=O)[C@H](CCCCN)NC(=O)[C@H](Cc1c[nH]cn1)NC(=O)[C@H](CO)NC(=O)[C@H](CC(C)C)N(C)C(=O)[C@H](CCCNC(=N)N)NC(=O)[C@@H]1CCCN1C(=O)[C@H](CCCNC(=N)N)NC(=O)[C@H](CCC(N)=O)NC(=O)[C@H](CCCNC(=N)N)NC(C)=O)C(=O)N1CCC[C@H]1C(=O)N[C@@H](Cc1ccc(Cl)cc1)C(=O)O) [SEQ ID NO: 64] | 0.0555 nM | 0.411 nM |
| Ac-[hArg][dR]Q[hArg]P[dR][NMeL]SHKGE[Phe(4-I)]P[dBip]-OH (SMILES CC(=O)N[C@@H](CCCCNC(=N)N)C(=O)N[C@H](CCCNC(=N)N)C(=O)N[C@@H](CCC(N)=O)C(=O)N[C@@H](CCCCNC(=N)N)C(=O)N1CCC[C@H]1C(=O)N[C@H](CCCNC(=N)N)C(=O)N(C)[C@@H](CC(C)C)C(=O)N[C@@H](CO)C(=O)N[C@@H](Cc1c[nH]cn1)C(=O)N[C@@H](CCCCN)C(=O)NCC(=O)N[C@@H](CCC(=O)O)C(=O)N[C@@H](Cc1ccc(I)cc1)C(=O)N1CCC[C@H]1C(=O)N[C@H](Cc1ccc(-c2ccccc2)cc1)C(=O)O) [SEQ ID NO: 85] | > 4170 nM | > 4170 nM |
| Ac-RQRPR[Cha]SHKGP[Nle]P[Phe(4-Cl)]-OH (SMILES CCCC[C@H](NC(=O)[C@@H]1CCCN1C(=O)CNC(=O)[C@H](CCCCN)NC(=O)[C@H](Cc1c[nH]cn1)NC(=O)[C@H](CO)NC(=O)[C@H](CC1CCCCC1)NC(=O)[C@H](CCCNC(=N)N)NC(=O)[C@@H]1CCCN1C(=O)[C@H](CCCNC(=N)N)NC(=O)[C@H](CCC(N)=O)NC(=O)[C@H](CCCNC(=N)N)NC(C)=O)C(=O)N1CCC[C@H]1C(=O)N[C@@H](Cc1ccc(Cl)cc1)C(=O)O) [SEQ ID NO: 63] | 0.036 nM | 0.164 nM |
| QRPRXSHKGPXXF ({Acetyl-NH}qRP[NMeArg][Cha]SHKG[aMePro][Nle][Aib][4-Cl-F]{COOH}) [SEQ ID NO: 93] | 0.229 nM | 0.79 nM |
| Ac-Q[hArg][NMehArg]LSHKGP[Nle]P[Phe(4-Cl)]-OH (SMILES CCCC[C@H](NC(=O)[C@@H]1CCCN1C(=O)CNC(=O)[C@H](CCCCN)NC(=O)[C@H](Cc1c[nH]cn1)NC(=O)[C@H](CO)NC(=O)[C@H](CC(C)C)NC(=O)[C@H](CCCCNC(=N)N)N(C)C(=O)[C@H](CCCCNC(=N)N)NC(=O)[C@H](CCC(N)=O)NC(C)=O)C(=O)N1CCC[C@H]1C(=O)N[C@@H](Cc1ccc(Cl)cc1)C(=O)O) [SEQ ID NO: 74] | 0.48 nM | 17.3 nM |
| Ac-RQRPRLSHKGP[Nle]P[dBip]-OH (SMILES CCCC[C@H](NC(=O)[C@@H]1CCCN1C(=O)CNC(=O)[C@H](CCCCN)NC(=O)[C@H](Cc1c[nH]cn1)NC(=O)[C@H](CO)NC(=O)[C@H](CC(C)C)NC(=O)[C@H](CCCNC(=N)N)NC(=O)[C@@H]1CCCN1C(=O)[C@H](CCCNC(=N)N)NC(=O)[C@H](CCC(N)=O)NC(=O)[C@H](CCCNC(=N)N)NC(C)=O)C(=O)N1CCC[C@H]1C(=O)N[C@H](Cc1ccc(-c2ccccc2)cc1)C(=O)O) [SEQ ID NO: 62] | 0.303 nM | 3.43 nM |
| Ac-Q[hArg]P[NMeR][Cha]SHKG[Oic][Nle]P[Phe(4-Cl)]-OH (SMILES CCCC[C@H](NC(=O)[C@@H]1C[C@@H]2CCCC[C@@H]2N1C(=O)CNC(=O)[C@H](CCCCN)NC(=O)[C@H](Cc1c[nH]cn1)NC(=O)[C@H](CO)NC(=O)[C@H](CC1CCCCC1)NC(=O)[C@H](CCCNC(=N)N)N(C)C(=O)[C@@H]1CCCN1C(=O)[C@H](CCCCNC(=N)N)NC(=O)[C@H](CCC(N)=O)NC(C)=O)C(=O)N1CCC[C@H]1C(=O)N[C@@H](Cc1ccc(Cl)cc1)C(=O)O) [SEQ ID NO: 61] | 0.159 nM | 0.189 nM |
| RLIEDICLPRWGCLWXXQRPRLSHKGPXPF ({Acetyl-NH}RLIEDICLPRWGCLW[Aeea][Aeea]QRP[NMeArg]LSHKGP[Nle]P[4-Cl-F]{COOH}) [SEQ ID NO: 91] | 0.0357 nM | 0.124 nM |
